The test system of one assay is biotinylated Wnt3a. As to the kind of experiment: ELISA binding to Wnt3a. The settings on record: PTK7 with FZD7 CRD. Set-up: species or system mouse. As for the experimental part:
(§1) Proteins used in ELISAs were obtained from R&D Systems: PTK7-Fc (R&D Systems, #9799-TK), biotinylated Wnt3a (R&D Systems, #BT1324), biotinylated Wnt5a (R&D Systems, #BT645). […] Assay plates (384 Maxisorp plates, Nunc, # 464718) were prepared by incubation overnight with 30 µl/well Neutravidin (2 µg/ml, Thermo Fisher Scientific, #31055) in PBS at 4 °C. Plates were emptied and incubated with 100 µl/well of blocking buffer (PBS, 2% bovine serum albumin, 0.01% NaN3) for 1 h at room temperature with shaking. Blocking buffer was aspirated and plates were washed 8x with 70 µl/well of PBS-T. In parallel, bio-Wnt3a or bio-Wnt5a were incubated in helper plates (384 well plates, Nunc; #264574) with a dilution series of PTK7-Fc or FZD7-His in the presence or absence of FZD7-His as a competitor in assay diluent (PBS + 0.5 % BSA + 15 ppm ProClin 300 (Sigma-Aldrich, #48914-U) for 1 h at 4 °C. Protein mixtures (25 µl/well) were transferred from helper plates to 3 wells of assay plates (technical triplicates), and incubated for 1 h at 4 °C. Assay plates were aspirated and washed 8× with 70 µl/well of PBS-T. Binding was detected by 25 µl/well of anti-hIgG1-Fc-HRP (0.2 µg/ml, Thermo Fisher Scientific, #A-10648) or anti-His-tag-HRP (0.2 µg/ml, Abcam, #ab1187) in assay diluent, incubated for 1 h at 4 °C. […] Absorbance at 450 nm was recorded with a plate reader. […]
For orientation: ELISA stands for enzyme-linked immunosorbent assay.

In assay [1] the test system is cytosolic Ca2+ in mouse intestinal organoids. Put plainly: live Ca2+ imaging of mouse intestinal organoids (GCaMP6f/tdTomato: baselined area under curve, peak number, height, width). The assay is classed as cell-based. The settings on record: live organoids expressing GCaMP6f. The protocol:
Z stacks were acquired every 10 s.
Z-stack images were converted to mean intensity projections and, where required; background was subtracted using a rolling ball algorithm. Segmentation was conducted on a max-projection over-time of the GCaMP6f channel using Cellpose’s pre-trained “Cytoplasm” classifier. Mean intensity traces were measured in each ROI over the time course in both the GCaMP6f and TdTomato channels using scikit-image[138]. Ca^2+ oscillation patterns were calculated in an unsupervised, automated manner using MATLAB. Mean intensity traces were smoothed using a Savitzky-Golay filter and peaks were identified using the “findpeaks” algorithm from the MATLAB Signal Processing Toolbox. Graphs for GCaMP6f/tdTomato fluorescence ratio, peak numbers, peak height, peak width and baselined area under the curve were generated using Python matplotlib and seaborn packages. Statistical analysis was performed using Python SciPy and scikit-post-hoc packages.

The test system of a further assay is biotinylated Wnt5a. Put plainly: ELISA binding to Wnt5a. Further details: species or system human/mouse (hmWnt5a). The conditions noted are these: Wnt5a versus Wnt3a. The protocol: as §1

B1: sPtk7: soluble/shed N-terminal extracellular domain of Ptk7 (protein)
chain: AIVFIKQPSSQDALQGRRALLRCEVEAPGPVHVYWLLDGAPVQDTERRFAQGSSLSFAAVDRLQDSGTFQCVARDDVTGEEARSANASFNIKWIEAGPVVLKHPASEAEIQPQTQVTLRCHIDGHPRPTYQWFRDGTPLSDGQSNHTVSSKERNLTLRPAGPEHSGLYSCCAHSAFGQACSSQNFTLSIADESFARVVLAPQDVVVARYEEAMFHCQFSAQPPPSLQWLFEDETPITNRSRPPHLRRATVFANGSLLLTQVRPRNAGIYRCIGQGQRGPPIILEATLHLAEIEDMPLFEPRVFTAGSEERVTCLPPKGLPEPSVWWEHAGVRLPTHGRVYQKGHELVLANIAESDAGVYTCHAANLAGQRRQDVNITVATVPSWLKKPQDSQLEEGKPGYLDCLTQATPKPTVVWYRNQMLISEDSRFEVFKNGTLRINSVEVYDGTWYRCMSSTPAGSIEAQARVQVLEKLKFTPPPQPQQCMEFDKEATVPCSATGREKPTIKWERADGSSLPEWVTDNAGTLHFARVTRDDAGNYTCIASNGPQGQIRAHVQLTVAVFITFKVEPERTTVYQGHTALLQCEAQGDPKPLIQWKGKDRILDPTKLGPRMHIFQNGSLVIHDVAPEDSGRYTCIAGNSCNIKHTEAPLYVVDKPVPEESEGPGSPPPYKMIQT
modifications: left off: Fc (human IgG1, from the anti-hIgG1-Fc detection antibody), end not stated, kept
notes: soluble/shed N-terminal extracellular domain of Ptk7
Consider B1, for which the “competition for binding to Wnt3a or Wnt5a” value with biotinylated Wnt3a was “unaffected by a saturating amount of FZD7 CRD”. Also, the “effect on cytosolic Ca2+ levels and oscillations” value in assay [1] is “modulate cytosolic Ca^2+ oscillations”. Besides, the “binding to Wnt3a and Wnt5a, relative affinity” value with biotinylated Wnt5a is given as “bound Wnt5a with higher affinity”.
